Each block holds one binder with its values, some of them ahead of it.
Tests used:
mouse FcγRII [1] = target: T1, mouse FcγRII (mouse, UniProt P08101 30-210); experiment: SPR Biacore T200, KD ratio; lower end tied to MB425 by Table 8
T1 construct: also called mFcγRII; mFcgRII
T1 sequence: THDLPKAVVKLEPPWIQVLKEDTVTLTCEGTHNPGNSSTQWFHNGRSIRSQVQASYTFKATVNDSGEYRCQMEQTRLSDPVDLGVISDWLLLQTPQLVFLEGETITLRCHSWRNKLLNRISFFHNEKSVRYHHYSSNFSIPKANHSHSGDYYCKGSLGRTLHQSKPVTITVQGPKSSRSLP

mouse FcγRIII [2] = target: T2, mouse FcγRIII (mouse, UniProt P08508 31-215); experiment: SPR Biacore T200
T2 construct: also called mFcγRIII; mFcgRIII
T2 chain: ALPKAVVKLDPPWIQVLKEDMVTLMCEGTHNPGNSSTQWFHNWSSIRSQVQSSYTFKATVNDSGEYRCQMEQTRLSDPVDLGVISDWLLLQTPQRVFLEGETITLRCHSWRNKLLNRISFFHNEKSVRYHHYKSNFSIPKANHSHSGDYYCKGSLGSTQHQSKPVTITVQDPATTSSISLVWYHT
From the text: (§1) The antibody H chain variable region used was the variable region H237 (SEQ ID NO: 1) of the H chain VH3-IgG1 of the anti-IL-6 receptor antibody Fv4-IgG1 described in WO2009/125825. The antibody L chain commonly used was the L chain MRAL-k0 (SEQ ID NO: 2) of the anti-IL-6 receptor antibody tocilizumab. The aforementioned 11 variants were used as templates to introduce the alteration. These variants were expressed and purified by the method of Reference Example 1 and evaluated for their binding to mFcγRII and mFcγRIII by the method of Reference Example 2 using Biacore T200.
Each altered antibody was analyzed for its interaction with each Fcγ receptor prepared above using Biacore T100 (GE Healthcare Japan Corp.), Biacore T200 (GE Healthcare Japan Corp.), Biacore A100, or Biacore 4000. The running buffer used was HBS-EP+ (GE Healthcare Japan Corp.). The assay temperature was set to 25° C. […]
In order to calculate the KD value of each altered antibody for FcγR, kinetic analysis was conducted according to the following method: first, the antibody of interest was captured onto any of these chips and allowed to interact with mFcγR diluted with a running buffer. […] From these values, the dissociation constant KD (mol/L) was calculated.

mouse FcγRII [3] = target: T1, mouse FcγRII; experiment: SPR Biacore T200, KD ratio; lower end tied to MB684 by Table 20
mouse FcγRIII [4] = target: T2, mouse FcγRIII; experiment: told of the L104-mk1 form; SPR was run on the MRAL-k0 form
mouse FcγRII [5] = target: T1, mouse FcγRII; experiment: as above
[6] = target: T3, mouse FcγRIII extracellular domain, C-terminal His tag (mouse, UniProt P08508 31-215); experiment: SPR (Biacore T200)
T3 construct: Whole entry named; also called mFcγRIII; mFcgRIII
T3 chain: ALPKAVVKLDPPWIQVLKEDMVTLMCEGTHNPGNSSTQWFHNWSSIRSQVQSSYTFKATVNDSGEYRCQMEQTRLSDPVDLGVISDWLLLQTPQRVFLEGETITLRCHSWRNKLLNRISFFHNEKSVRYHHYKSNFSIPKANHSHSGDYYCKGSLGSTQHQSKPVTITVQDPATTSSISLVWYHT
From the text: as §1, with “7” for “11”, “substitute the amino acids at the alteration sites by the amino acids before” for “introduce”
(§2) Each altered antibody was analyzed for its interaction with each Fcγ receptor prepared above using Biacore T100 (GE Healthcare Japan Corp.), Biacore T200 (GE Healthcare Japan Corp.), Biacore A100, or Biacore 4000. The running buffer used was HBS-EP+ (GE Healthcare Japan Corp.). The assay temperature was set to 25° C. The sensor chips used were chips prepared by immobilizing Protein L (ACTIGEN or BioVision) onto Series S Sensor Chip CM5 (GE Healthcare Japan Corp.) or Series S Sensor Chip CM4 (GE Healthcare Japan Corp.) by the amine coupling method.

[7] = target: T4, mouse FcγRII extracellular domain, C-terminal His tag (mouse, UniProt P08101 30-210); experiment: SPR (Biacore T200); KD of H237-mIgG1/MRAL-k0 / KD of variant
T4 construct: Whole entry named; also called mFcγRII; mFcgRII
T4 sequence: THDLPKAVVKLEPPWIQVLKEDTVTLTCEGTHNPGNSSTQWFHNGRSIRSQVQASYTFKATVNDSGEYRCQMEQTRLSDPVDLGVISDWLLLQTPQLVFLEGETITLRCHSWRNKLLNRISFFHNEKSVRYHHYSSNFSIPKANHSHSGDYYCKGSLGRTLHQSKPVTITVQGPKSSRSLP
From the text: as §1, with “7” for “11”, “substitute the amino acids at the alteration sites by the amino acids before” for “introduce”
as §2

mouse FcγRII [8] = target: T1, mouse FcγRII; experiment: SPR Biacore T200, KD ratio; upper end tied to MB682 by Table 20

B1: H237-MB425/MRAL-k0 (antibody, mouse IgG1, kappa)
heavy: QVQLQESGPGLVKPSETLSLTCAVSGHSISHDHAWSWVRQPPGEGLEWIGFISYSGITNYNPSLQGRVTISRDNSKNTLYLQMNSLRAEDTAVYYCARSLARTTAMDYWGEGTLVTVSSAKTTPPSVYPLAPGSAAQTNSMVTLGCLVKGYFPEPVTVTWNSGSLSSGVHTFPAVLQSDLYTLSSSVTVPSSTWPSETVTCNVAHPASSTKVDKKIVPRDCGCKPCICIPAEVEDVFIFPPKPKDVLTITLTPKVTCVVVDISKDDPEVQFSWFVDDVEVHTAQTQPREEQFNSTFRSVSELPIMHQDWLNGKEFKCRVNSAAFPAPIEKTISKTKGRPKAPQVYTIPPPKEQMAKDKVSLTCMITDFFPEDITVEWQWNGQPAENYKNTQPIMDTDGSYFVYSKLNVQKSNWEAGNTFTCSVLHEGLHNHHTEKSLSHSPGK
light: not shown
notes: mIgG1 with T230I/V231P/P232A/S238E/S239D; also called template T7; copies: 2 + 2
relative mFcγRII-binding activity (H237-mIgG1/MRAL-k0 = 1) (mouse FcγRII [1]): 200 fold

B3: MB684 (antibody)
heavy: QVQLQESGPGLVKPSETLSLTCAVSGHSISHDHAWSWVRQPPGEGLEWIGFISYSGITNYNPSLQGRVTISRDNSKNTLYLQMNSLRAEDTAVYYCARSLARTTAMDYWGEGTLVTVSSAKTTPPSVYPLAPGSAAQTNSMVTLGCLVKGYFPEPVTVTWNSGSLSSGVHTFPAVLQSDLYTLSSSVTVPSSTWPSETVTCNVAHPASSTKVDKKIVPRDCGCKPCICQPKEVEDVFIFPPKPKDVLTITLTPKVTCVVVDISKDDPEVQFSWFVDDVEVHTAQTQPREEQFNSTFRSVSELPIMHQDWLNGKEFKCRVNSAAFPAPIEKTISKTKGRPKAPQVYTIPPPKEQMAKDKVSLTCMITDFFPEDITVEWQWNGQPAENYKNTQPIMDTDGSYFVYSKLNVQKSNWEAGNTFTCSVLHEGLHNHHTEKSLSHSPGK
light: not shown
notes: copies: 2 + 2
relative mFcγRII-binding activity (H237-mIgG1/MRAL-k0 = 1) (mouse FcγRII [3]): 5 to 15 fold

B6: MB682 (antibody)
heavy: QVQLQESGPGLVKPSETLSLTCAVSGHSISHDHAWSWVRQPPGEGLEWIGFISYSGITNYNPSLQGRVTISRDNSKNTLYLQMNSLRAEDTAVYYCARSLARTTAMDYWGEGTLVTVSSAKTTPPSVYPLAPGSAAQTNSMVTLGCLVKGYFPEPVTVTWNSGSLSSGVHTFPAVLQSDLYTLSSSVTVPSSTWPSETVTCNVAHPASSTKVDKKIVPRDCGCKPCICEPKEVEDVFIFPPKPKDVLTITLTPKVTCVVVDISKDDPEVQFSWFVDDVEVHTAQTQPREEQFNSTFRSVSELPIMHQDWLNGKEFKCRVNSAAFPAPIEKTISKTKGRPKAPQVYTIPPPKEQMAKDKVSLTCMITDFFPEDITVEWQWNGQPAENYKNTQPIMDTDGSYFVYSKLNVQKSNWEAGNTFTCSVLHEGLHNHHTEKSLSHSPGK
light: not shown
notes: copies: 2 + 2
relative mFcγRII-binding activity (H237-mIgG1/MRAL-k0 = 1) (mouse FcγRII [8]): 5 to 15 fold

Further lines, results first:

binding result (mouse FcγRIII [2]): no binding
B2: H237-MB697/MRAL-k0 (antibody, mouse IgG1, kappa)
heavy: QVQLQESGPGLVKPSETLSLTCAVSGHSISHDHAWSWVRQPPGEGLEWIGFISYSGITNYNPSLQGRVTISRDNSKNTLYLQMNSLRAEDTAVYYCARSLARTTAMDYWGEGTLVTVSSAKTTPPSVYPLAPGSAAQTNSMVTLGCLVKGYFPEPVTVTWNSGSLSSGVHTFPAVLQSDLYTLSSSVTVPSSTWPSETVTCNVAHPASSTKVDKKIVPRDCGCKPCICEPPEVEFVFIFPPKPKDVLTITLTPKVTCVVVDISKDDPEVQFSWFVDDVEVHTAQTQPREEQFNSTFRSVSELPIMHQDWLNGKEFKCRVNSAAFPAPIEKTISKTKGRPKAPQVYTIPPPKEQMAKDKVSLTCMITDFFPEDITVEWQWNGQPAENYKNTQPIMDTDGSYFVYSKLNVQKSNWEAGNTFTCSVLHEGLHNHHTEKSLSHSPGK
light: not shown
notes: copies: 2 + 2

binding result (mouse FcγRIII [4]): binds
binding result (mouse FcγRII [5]): binds
B4: H237-mF46/L104-mk1 (antibody, mouse IgG1, kappa)
heavy: QVQLQESGPGLVKPSETLSLTCAVSGHSISHDHAWSWVRQPPGEGLEWIGFISYSGITNYNPSLQGRVTISRDNSKNTLYLQMNSLRAEDTAVYYCARSLARTTAMDYWGEGTLVTVSSAKTTPPSVYPLAPGSAAQTNSMVTLGCLVKGYFPEPVTVTWNSGSLSSGVHTFPAVLQSDLYTLSSSVTVPSSTWPSETVTCNVAHPASSTKVDKKIVPRDCGCKPCICTVPEVSDVFIFPPKPKDVLTITLTPKVTCVVVDISKDDPEVQFSWFVDDVEVHTAQTQPREEQFNSTFRSVSELPIMHQDWLNGKEFKCRVNSADFPAPIEKTISKTKGRPKAPQVYTIPPPKEQMAKDKVSLTCMITDFFPEDITVEWQWNGQPAENYKNTQPIMDTDGSYFVYSKLNVQKSNWEAGNTFTCSVLHEGLHNHHTEKSLSHSPGK
light: DIQMTQSPSSLSASVGDSVTITCQASTDISSHLNWYQQKPGKAPELLIYYGSHLLSGVPSRFSGSGSGTDFTFTISSLEAEDAATYYCGQGNRLPYTFGQGTKVEIERADAAPTVSIFPPSSEQLTSGGASVVCFLNNFYPKDINVKWKIDGSERQNGVLNSWTDQDSKDSTYSMSSTLTLTKDEYERHNSYTCEATHKTSTSPIVKSFNRNEC
notes: the text speaks of it for this form; copies: 2 + 2

binding result [6]: no binding
relative mFcγRII-binding activity (mIgG1 = 1) [7]: 0.187 fold
B5: H237-MB701/MRAL-k0 (antibody, mouse IgG1, kappa)
heavy: QVQLQESGPGLVKPSETLSLTCAVSGHSISHDHAWSWVRQPPGEGLEWIGFISYSGITNYNPSLQGRVTISRDNSKNTLYLQMNSLRAEDTAVYYCARSLARTTAMDYWGEGTLVTVSSAKTTPPSVYPLAPGSAAQTNSMVTLGCLVKGYFPEPVTVTWNSGSLSSGVHTFPAVLQSDLYTLSSSVTVPSSTWPSETVTCNVAHPASSTKVDKKIVPRDCGCKPCICEVPEEEFVFIFPPKPKDVLTITLTPKVTCVVVDISKDDPEVQFSWFVDDVEVHTAQTQPREEQFNSTFRSVSELPIMHQDWLNGKEFKCRVNSAAFPAPIEKTISKTKGRPKAPQVYTIPPPKEQMAKDKVSLTCMITDFFPEDITVEWQWNGQPAENYKNTQPIMDTDGSYFVYSKLNVQKSNWEAGNTFTCSVLHEGLHNHHTEKSLSHSPGK
light: not shown
notes: copies: 2 + 2

binding result (mouse FcγRIII [2]): no binding
B7: H237-MB701/MRAL-k0 (antibody, mouse IgG1, kappa)
heavy: QVQLQESGPGLVKPSETLSLTCAVSGHSISHDHAWSWVRQPPGEGLEWIGFISYSGITNYNPSLQGRVTISRDNSKNTLYLQMNSLRAEDTAVYYCARSLARTTAMDYWGEGTLVTVSSAKTTPPSVYPLAPGSAAQTNSMVTLGCLVKGYFPEPVTVTWNSGSLSSGVHTFPAVLQSDLYTLSSSVTVPSSTWPSETVTCNVAHPASSTKVDKKIVPRDCGCKPCICEVPEEEFVFIFPPKPKDVLTITLTPKVTCVVVDISKDDPEVQFSWFVDDVEVHTAQTQPREEQFNSTFRSVSELPIMHQDWLNGKEFKCRVNSAAFPAPIEKTISKTKGRPKAPQVYTIPPPKEQMAKDKVSLTCMITDFFPEDITVEWQWNGQPAENYKNTQPIMDTDGSYFVYSKLNVQKSNWEAGNTFTCSVLHEGLHNHHTEKSLSHSPGK
light: not shown
notes: copies: 2 + 2

binding result [6]: no binding
relative mFcγRII-binding activity (mIgG1 = 1) [7]: 0.217 fold
B8: H237-MB697/MRAL-k0 (antibody, mouse IgG1, kappa)
heavy: QVQLQESGPGLVKPSETLSLTCAVSGHSISHDHAWSWVRQPPGEGLEWIGFISYSGITNYNPSLQGRVTISRDNSKNTLYLQMNSLRAEDTAVYYCARSLARTTAMDYWGEGTLVTVSSAKTTPPSVYPLAPGSAAQTNSMVTLGCLVKGYFPEPVTVTWNSGSLSSGVHTFPAVLQSDLYTLSSSVTVPSSTWPSETVTCNVAHPASSTKVDKKIVPRDCGCKPCICEPPEVEFVFIFPPKPKDVLTITLTPKVTCVVVDISKDDPEVQFSWFVDDVEVHTAQTQPREEQFNSTFRSVSELPIMHQDWLNGKEFKCRVNSAAFPAPIEKTISKTKGRPKAPQVYTIPPPKEQMAKDKVSLTCMITDFFPEDITVEWQWNGQPAENYKNTQPIMDTDGSYFVYSKLNVQKSNWEAGNTFTCSVLHEGLHNHHTEKSLSHSPGK
light: not shown
notes: copies: 2 + 2
